# Assay results reported in US20190202925A1 (OPI VI IP HOLDCO, published 2019).
# Changes are numbered by the printed parent chain.
# B1: chimeric SBT-004 (antibody, V domains shown)
# VH: EVQLQQSGPEVGRPGSSVKISCKASGYTFTDYIMHWVKQSPGQGLEWIGWVDPEYGSTDYAEKFKKKATLTADTSSNTAYIQLSSLTSEDTATYFCARDDGSYSPFDYWGQGVMVTVSS
# VL: DIQMTQSPPSLSASLGDKVTITCQASQNINKYIAWYQQKPGKAPRLLIRYTSTLESGTPSRFSGSGSGRDYSFSISNVESEDIASYYCLQYVNLLTFGAGTKLEIK
# notes: VH fused to a human IgG1 Fc domain; also called chSBT-004
# B2: chimeric SBT-002 (antibody, V domains shown)
# VH: QVTLKESGPGILQPSQTLSLTCSFSGFSLSTSGMGVGWIRQPSGKGLEWLAHIWWDDDKFYNPSLKSQLTISKDTSRNQVFLKLTSVVTADTATYYCARLTGTRYFDYWGQGTTLTVSS
# VL: DVQMTQSPSSLSASLGGKVTITCKASQDINKFIAWYQHKPGKGPRLLIHYTSTLQPGIPSKFSGSGSGRDYSFSISNLEPEDIATYYCLQYGNLWTFGGGTKLEIT
# notes: also called chSBT-002
# Tests used:
# soluble cynomolgus TNFR2 [1] = target: T1, soluble cynomolgus TNFR2 (cynomolgus, UniProt A0A2K5VET2 132-366); experiment: competition ELISA: plate-bound soluble cynomolgus TNFR2, competitor biotinylated TNFα; IC50 relative to unlabelled TNFα = 1.00
# T1 sequence: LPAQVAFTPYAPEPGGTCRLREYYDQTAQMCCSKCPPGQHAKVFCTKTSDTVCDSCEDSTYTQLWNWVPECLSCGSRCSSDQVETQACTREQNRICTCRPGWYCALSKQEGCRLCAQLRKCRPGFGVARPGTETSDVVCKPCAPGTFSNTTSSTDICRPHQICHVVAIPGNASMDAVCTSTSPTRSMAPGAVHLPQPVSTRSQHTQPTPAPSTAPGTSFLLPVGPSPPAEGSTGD
# Method: (§1) Soluble human TNFR2 (Sino Biological, 10417-H08H) or cynomolgus TNFR2 (Sino Biological, 90102-C08H) was coated on Nunc-Immuno™ plates at 0.1 μg/ml, 0.5 ug/ml, 1 μg/ml, and 5 μg/ml. […] Plates were developed using TMB and stopped with 3 M HCl.
# (§2) IC₅₀ values are reported in nM.
# [2] = target: T2, monomeric cynomolgus TNFR2 extracellular domain (cynomolgus monkey, UniProt A0A2K5VET2 132-366); experiment: BLI (Octet Red 96), antibody captured on Fc biosensor, monomeric TNFR2 ECD in solution, 1:1 model
# T2 construct: extracellular domain; Analyte in the Octet experiments; also called cynomolgus TNFR2 ECD; Cyno TNFR2
# T2 sequence: T1 sequence
# [3] = target: T3, monomeric human TNFR2 extracellular domain (human, UniProt P20333 23-257); experiment: as above
# T3 construct: extracellular domain; Analyte in the Octet experiments; also called human TNFR2 ECD
# T3 sequence (looked up): T1 sequence with G16S, P36S, Q117P, H164N, A210E, G216S, V223M
# human TNFR2 on cells = target: T4, human TNFR2 on cells (human, UniProt P20333 23-461); experiment: flow cytometry on human PBMC, antibody at 10 ug/mL, anti-human Fc-PE secondary
# T4 construct: whole, on cells; also called TNFR2 on Jurkat clone H6; human TNFR2 on CD4+ and CD8+ T cells
# T4 sequence (looked up): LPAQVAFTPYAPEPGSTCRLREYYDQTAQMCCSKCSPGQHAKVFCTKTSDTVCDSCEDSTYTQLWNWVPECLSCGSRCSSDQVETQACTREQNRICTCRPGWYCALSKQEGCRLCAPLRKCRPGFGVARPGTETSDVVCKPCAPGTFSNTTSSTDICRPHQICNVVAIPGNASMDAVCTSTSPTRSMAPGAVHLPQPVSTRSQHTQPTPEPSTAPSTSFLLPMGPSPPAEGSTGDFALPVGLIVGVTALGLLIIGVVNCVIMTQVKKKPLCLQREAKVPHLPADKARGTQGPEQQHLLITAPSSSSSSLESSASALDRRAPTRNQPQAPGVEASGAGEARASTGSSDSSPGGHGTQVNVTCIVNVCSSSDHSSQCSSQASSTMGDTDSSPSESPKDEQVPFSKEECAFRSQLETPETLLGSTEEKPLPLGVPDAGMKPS
# Method: The following day 0.3×10⁶ PBMC were counted and washed with PBS (Lonza). PBMCs were resuspended in Fixable Viability Stain 575V (BD) diluted 1:1,000 in PBS and incubated for 10 minutes. PBMCs were then washed twice in PBS to remove residual viability stain. PBMCs were then resuspended in Horizon Brilliant Stain Buffer (BD) with 10 uL per test of human Fc receptor binding inhibitor (eBioscience) and incubated on ice for 20 minutes to block Fc receptors. […] PBMCs were incubated 20 minutes on ice and then washed three times with 2% FBS PBS. To visualize TNFR chimeric antibody binding, PBMCs were resuspended in goat anti-human Fc-PE F(ab′)₂ secondary reagent (Jackson ImmunoResearch) diluted 1:200 in 2% FBS PBS and incubated on ice for 20 minutes. Cells were then washed three times in 2% FBS PBS and resuspended in 200 uL 2% FBS PBS for flow cytometry analysis using a BD FACS Celesta instrument and FACS Diva software. T cells were analyzed for chimeric TNFR2 binding by gating on viable cells defined as lymphocytes using forward and side scatter and as T cells by anti-CD3 staining. CD4⁺ and CD8⁺ subsets were identified by commercially available specific antibody conjugates.
# soluble cynomolgus TNFR2 [4] = target: T1, soluble cynomolgus TNFR2; experiment: competition ELISA, plate-bound soluble cynomolgus TNFR2, biotinylated TNFα as competitor
# Method: as §1, §2
# soluble cynomolgus TNFR2 [5] = target: T1, soluble cynomolgus TNFR2; experiment: competition ELISA: plate-bound soluble cynomolgus TNFR2, competitor biotinylated TNFα, streptavidin-HRP, A450
# Method: as §1
Binder,Relative IC50 (soluble cynomolgus TNFR2 [1]) [nM],Kd [2] [nM],Kd [3] [nM],% CD4^+ ab^+ Donor 1 (human TNFR2 on cells) [%],% CD4^+ ab^+ Donor 2 (human TNFR2 on cells) [%],% CD8^+ ab^+ Donor 1 (human TNFR2 on cells) [%],% CD8^+ ab^+ Donor 2 (human TNFR2 on cells) [%],Average Relative IC50 (soluble cynomolgus TNFR2 [4]),IC50 (soluble cynomolgus TNFR2 [5]) [nM]
B1,3.22,3.4,3.6,38.4,26.4,18.8,16.1,3.64,31
B2,2.87,0.62,0.8,47.6,38.3,24.3,18.9,3.38,27.6
